Laboratory results published in patent publication US20230364254A1, “METHODS FOR TREATING CANCERS WITH ANTIBODY DRUG CONJUGATES (ADC) THAT BIND TO 191P4D12 PROTEINS” (priority 2020, published 2023).

System: patients with locally advanced or metastatic urothelial cancer
Assay: Same phase 2 study: safety (adverse events, NCI CTCAE v4.03)
Format: in vivo, human
Description: Safety assessments will be based on the information collected through the safety surveillance process and will include the data from recorded adverse events (AEs) including SAEs, recording of concomitant medication, physical examination findings, cardiac monitoring, and laboratory tests.
The assessment of safety during the course of this study will consist of the surveillance and recording of AEs including SAEs, recording of concomitant medication, and measurements of protocol-specified physical examination findings, cardiac monitoring, and laboratory tests.
AE severity should be graded using the National Cancer Institute's Common Terminology Criteria for Adverse Events (NCI CTCAE), Version 4.03. These criteria are provided in the study manual.
An overview of AEs will provide a tabulation of the incidence of all AEs, treatment-emergent AEs, treatment-related AEs, Grade 3 and higher AEs. SAEs, treatment-related SAEs, deaths, and AEs leading to study treatment discontinuation. Adverse events will be defined as treatment emergent if they are newly occurring or worsened following study treatment.
AEs will be classified by system organ class and preferred tem using the Medical Dictionary for Regulatory Activities (MedDRA) and graded using NCI CTCAE, Version 4.03.
The incidence of AEs will be summarized by system organ class, preferred term, severity and relationship to study drug. In the event of multiple occurrences of the same AE in one patient, the AE will be counted once as the occurrence for the maximum grade. AEs leading to premature discontinuation of study drug will be summarized and listed in the same manner.

[1] = Cohort 2 (N = 89), additional 3 months follow-up
[2] = Cohort 2 (N = 89), count (percent)
[3] = Cohort 2, additional 3 months follow-up

Question: Which results are given for “enfortumab vedotin: Nectin-4 directed ADC: fully human anti-nectin-4 IgG1 kappa antibody (AGS-22C3) conjugated to MMAE via protease-cleavable maleimidocaproyl valine-citrulline linker”?
Answer: TRAEs, Any Grade: Neutropenia [1]: 11 (12) n (%); TRAEs, Any Grade: Overall [1]: 86 (97) n (%); TRAEs, Any Grade: Peripheral sensory neuropathy [1]: 44 (49) n (%); TRAEs, Any Grade: Pruritus [1]: 27 (30) n (%); TRAEs, Any Grade: Rash maculo-papular [1]: 27 (30) n (%); TRAEs, Any Grade: nnn Weight decreased [1]: 23 (26) n (%); TRAEs, ≥Grade 3: Anemia [1]: 5 (6) n (%); TRAEs, ≥Grade 3: Decreased appetite [1]: 5 (6) n (%); TRAEs, ≥Grade 3: Diarrhea [1]: 5 (6) n (%); TRAEs, ≥Grade 3: Fatigue [1]: 6 (7) n (%); TRAEs, ≥Grade 3: Hyperglycemia [1]: 5 (6) n (%); TRAEs, ≥Grade 3: Lipase increased [1]: 5 (6) n (%); TRAEs, ≥Grade 3: Nausea [1]: 1 (1) n (%); TRAEs, ≥Grade 3: Neutropenia [1]: 8 (9) n (%); TRAEs, ≥Grade 3: Overall [1]: 49 (55) n (%); TRAEs, ≥Grade 3: Peripheral sensory neuropathy [1]: 3 (3) n (%); TRAEs, ≥Grade 3: Pruritus [1]: 3 (3) n (%); TRAEs, ≥Grade 3: Rash maculo-papular [1]: 7 (8) n (%); TRAEs, ≥Grade 3: nnn Weight decreased [1]: 1 (1) n (%); TEAEs leading to death (excluding disease progression): Acute kidney injury [2]: 2 (2.2); TEAEs leading to death (excluding disease progression): Metabolic acidosis [2]: 1 (1.1); TEAEs leading to death (excluding disease progression): Multiple organ dysfunction syndrome [2]: 1 (1.1); TEAEs leading to death (excluding disease progression): Overall [2]: 5 (5.6); TEAEs leading to death (excluding disease progression): Sepsis [2]: 1 (1.1); Primary Cause of Death, treatment-related death (Cohort 2, Subject 10007-0180, death on study day 15): Metabolic acidosis; Primary Cause of Death, treatment-related death (Cohort 2, Subject 10013-0190, death on study day 28): Acute kidney injury; Primary Cause of Death, treatment-related death (Cohort 2, Subject 10030-0197, death on study day 25): Multiple organ; Primary Cause of Death, treatment-related death (Cohort 2, Subject 82004-0178, death on study day 203): Pneumonitis; Treatment-related TEAEs of interest: hyperglycemia, all grade [3]: 10%; Treatment-related TEAEs of interest: hyperglycemia, ≥G3 [3]: 6%; Treatment-related TEAEs of interest: peripheral neuropathy, all grade [3]: 56%; Treatment-related TEAEs of interest: peripheral neuropathy, ≥G3 [3]: 8%; Treatment-related TEAEs of interest: rash, all grade [3]: 61%; Treatment-related TEAEs of interest: rash, ≥G3 [3]: 17%; patients who discontinued treatment due to grade 3 dermatitis bullous [3]: one; skin reactions: grade 4 events [3]: 1; skin reactions: grade 5 events [3]: no grade 5 events; treatment-related TEAEs (all-grade): alopecia [3]: 51%; treatment-related TEAEs (all-grade): fatigue [3]: 34%; treatment-related TEAEs (all-grade): peripheral sensory neuropathy [3]: 49%; patients with severe cutaneous adverse reactions (Cohort 2, irrespective of grade, additional 3 months follow-up): 13; rate of hyperglycemia (Cohort 2, patients with preexisting hyperglycemia): 20%; rate of peripheral neuropathy (Cohort 2, patients with preexisting peripheral neuropathy): 60%; rate of hyperglycemia (Cohort 2, patients without preexisting hyperglycemia): 7%; rate of peripheral neuropathy (Cohort 2, patients without preexisting peripheral neuropathy): 55%; patients with severe cutaneous adverse reactions who had grade 3 events (Cohort 2, stomatitis, skin exfoliation, dermatitis bullous, dermatitis exfoliative generalized): 4; additional treatment-related deaths in the updated analysis (Cohort 2, three-month follow-up): No additional treatment-related deaths; AE of special interest, All Grade: Hyperglycemia (Total (N = 214)): 36 (16.8) N (%); AE of special interest, All Grade: IRR (Total (N = 214)): 14 (6.5) N (%); AE of special interest, All Grade: Ocular Events, Blurred Vision (Total (N = 214)): 30 (14.0) N (%); AE of special interest, All Grade: Ocular Events, Corneal Disorders (Total (N = 214)): 23 (10.7) N (%); AE of special interest, All Grade: Ocular Events, Dry Eye Disorders (Total (N = 214)): 78 (36.4) N (%); AE of special interest, All Grade: Peripheral Neuropathy (Total (N = 214)): 122 (57.0) N (%); AE of special interest, All Grade: Rash (Total (N = 214)): 126 (58.9) N (%); AE of special interest, ≥Gr 3: Hyperglycemia (Total (N = 214)): 18 (8.4) N (%); AE of special interest, ≥Gr 3: IRR (Total (N = 214)): 2 (0.9) N (%); AE of special interest, ≥Gr 3: Peripheral Neuropathy (Total (N = 214)): 12 (5.6) N (%); AE of special interest, ≥Gr 3: Rash (Total (N = 214)): 30 (14.0) N (%); Any TEAEs (Total (N = 214)): 214 (100.0) n (%); Any TEAEs leading to death (Total (N = 214)): 15 (7.0) n (%); Any TEAEs leading to treatment discontinuation (Total (N = 214)): 38 (18.2) n (%); Any grade 3-5 TEAEs (Total (N = 214)): 155 (72.4) n (%); Any serious TEAEs (Total (N = 214)): 94 (43.9) n (%); SAEs (All): Acute kidney injury (Total (N = 214)): 13 (6.1) n (%); SAEs (All): Cellulitis (Total (N = 214)): 6 (2.8) n (%); SAEs (All): Diarrhoea (Total (N = 214)): 6 (2.8) n (%); SAEs (All): Febrile neutropenia (Total (N = 214)): 6 (2.8) n (%); SAEs (All): Nausea (Total (N = 214)): 5 (2.3) n (%); SAEs (All): Overall (Total (N = 214)): 94 (43.9) n (%); SAEs (All): Pneumonia (Total (N = 214)): 6 (2.8) n (%); SAEs (All): Sepsis (Total (N = 214)): 8 (3.7) n (%); SAEs (All): Urinary tract infection (Total (N = 214)): 9 (4.2) n (%); SAEs (Related): Acute kidney injury (Total (N = 214)): 4 (1.9) n (%); SAEs (Related): Cellulitis (Total (N = 214)): 2 (0.9) n (%); SAEs (Related): Diarrhoea (Total (N = 214)): 3 (1.4) n (%); SAEs (Related): Febrile neutropenia (Total (N = 214)): 6 (2.8) n (%); SAEs (Related): Nausea (Total (N = 214)): 4 (1.9) n (%); SAEs (Related): Overall (Total (N = 214)): 39 (18.2) n (%); SAEs (Related): Pneumonia (Total (N = 214)): 1 (0.5) n (%); Treatment-related AE leading to discontinuation: Acute kidney injury (Total (N = 214)): 2 (0.9) n (%); Treatment-related AE leading to discontinuation: Asthenia (Total (N = 214)): 1 (0.5) n (%); Treatment-related AE leading to discontinuation: Dermatitis bullous (Total (N = 214)): 1 (0.5) n (%); Treatment-related AE leading to discontinuation: Drug eruption (Total (N = 214)): 1 (0.5) n (%); Treatment-related AE leading to discontinuation: Enterocolitis (Total (N = 214)): 1 (0.5) n (%); Treatment-related AE leading to discontinuation: Fatigue (Total (N = 214)): 1 (0.5) n (%); Treatment-related AE leading to discontinuation: Hyperglycaemia (Total (N = 214)): 1 (0.5) n (%); Treatment-related AE leading to discontinuation: Interstitial lung disease (Total (N = 214)): 1 (0.5) n (%); Treatment-related AE leading to discontinuation: Lipase increased (Total (N = 214)): 2 (0.9) n (%); Treatment-related AE leading to discontinuation: Metabolic acidosis (Total (N = 214)): 1 (0.5) n (%)
